Laboratory results taken from US20260167699A1 (Chugai, published 2026).
Residue numbers refer to the chain shown, from its start.

B1: Kn125-L2b-9 (antibody, human IgG1, kappa)
heavy 1: QDQLVQSGAEVKKPGASVKVSCKASGFNIKDTYIQWVRQAPGQGLEWMGRIDPLRKQTKYREKFEGRVTITADTSTNTAYMELSSLRSEDTAVYYCVRSGREFDYWGQGTLVTVSSASTKGPSVFPLAPSSKSTSGGTAALGCLVKDYFPEPVTVSWNSGALTSGVHTFPAVLQSSGLYSLSSVVTVPSSSLGTQTYICNVNHKPSNTKVDKKVEPKSCDKTHTCPPCPAPELLGGPSVFLFPPKPKDTLMISRTPEVTCVVVDVSHEEPEVKFNWYVDGVEVHNAKTKPREEQYNSTYRVVSVLTVLHQDWLNGKEYKCKVSNDALPMPIEETISKAKGQPREPQVYTLPPSRCELTKNQVSLSCAVKGFYPSDIAVEWESNGQPENNYKTTPPVLDSDGSFFLVSKLTVDKSRWQQGNVFSCSVMHEALHNHYTQKSLSLSP
heavy 2: QDQLVQSGAEVKKPGASVKVSCKASGFNIKDTYIQWVRQAPGQGLEWMGRIDPLRKQTKYREKFEGRVTITADTSTNTAYMELSSLRSEDTAVYYCVRSGREFDYWGQGTLVTVSSASTKGPSVFPLAPSSKSTSGGTAALGCLVKDYFPEPVTVSWNSGALTSGVHTFPAVLQSSGLYSLSSVVTVPSSSLGTQTYICNVNHKPSNTKVDKKVEPKSCDKTHTCPPCPAPEYQWGPMVFLFPPKPKDTLMISRTPEVTCVVVDVSDEEGGSGGSGGSPEVKFNWYVDGVEVHNAKTKPREEQYNATYRVVSVLTVLHQDWLNGKEYKCKVSNKALPAPIEKTISKAKGQPREPQVCTLPPSRDELTKNQVSLWCLVKGFYPSDIAVEWESNGQPENNYKTTPPVLDSDGSFFLYSKLTVDKSRWQQGNVFSCSVMHEALHNHYTQKSLSLSP
light: DIQMTQSPSSLSASVGDRVTITCRASQDIHKYIAWYQQKPGQAPRLLIQYTSTLQPGVPSRFSGSGSGTDYTFTISSLQPEDIATYYCLQYEQLRTFGGGTKVEIKRTVAAPSVFIFPPSDEQLKSGTASVVCLLNNFYPREAKVQWKVDNALQSGNSQESVTEQDSKDSTYSLSSTLTLSKADYEKHKVYACEVTHQGLSSPVTKSFNRGEC
notes: heterodimerized anti-EREG antibody: altered H240-Kn125 chain (Gly/Ser peptide in loop) with H240-Hl076 and L73-k0
B2: Kn125-L4-9 (antibody, human IgG1, kappa)
heavy 1: B1 heavy 1
heavy 2: QDQLVQSGAEVKKPGASVKVSCKASGFNIKDTYIQWVRQAPGQGLEWMGRIDPLRKQTKYREKFEGRVTITADTSTNTAYMELSSLRSEDTAVYYCVRSGREFDYWGQGTLVTVSSASTKGPSVFPLAPSSKSTSGGTAALGCLVKDYFPEPVTVSWNSGALTSGVHTFPAVLQSSGLYSLSSVVTVPSSSLGTQTYICNVNHKPSNTKVDKKVEPKSCDKTHTCPPCPAPEYQWGPMVFLFPPKPKDTLMISRTPEVTCVVVDVSDEEPEVKFNWYVDGVEVHNAKTKPREEQYNATYRVVSVLTVLHQDWLNGKEYKCKVSNKGGSGGSGGSALPAPIEKTISKAKGQPREPQVCTLPPSRDELTKNQVSLWCLVKGFYPSDIAVEWESNGQPENNYKTTPPVLDSDGSFFLYSKLTVDKSRWQQGNVFSCSVMHEALHNHYTQKSLSLSP
light: B1 light
notes: as for B1
B3: Kn125-L4-3 (antibody, human IgG1, kappa)
heavy 1: B1 heavy 1
heavy 2: QDQLVQSGAEVKKPGASVKVSCKASGFNIKDTYIQWVRQAPGQGLEWMGRIDPLRKQTKYREKFEGRVTITADTSTNTAYMELSSLRSEDTAVYYCVRSGREFDYWGQGTLVTVSSASTKGPSVFPLAPSSKSTSGGTAALGCLVKDYFPEPVTVSWNSGALTSGVHTFPAVLQSSGLYSLSSVVTVPSSSLGTQTYICNVNHKPSNTKVDKKVEPKSCDKTHTCPPCPAPEYQWGPMVFLFPPKPKDTLMISRTPEVTCVVVDVSDEEPEVKFNWYVDGVEVHNAKTKPREEQYNATYRVVSVLTVLHQDWLNGKEYKCKVSNKGGSALPAPIEKTISKAKGQPREPQVCTLPPSRDELTKNQVSLWCLVKGFYPSDIAVEWESNGQPENNYKTTPPVLDSDGSFFLYSKLTVDKSRWQQGNVFSCSVMHEALHNHYTQKSLSLSP
light: B1 light
notes: as for B1
B4: GpH7-A5/GpH7-B3 variant S337_08L/GpL16-k0 (antibody, human IgG1, kappa)
heavy 1: not shown
heavy 2: not shown
light: DIVMTQSPLSLPVTPGEPASISCQASESLVHSNRNTYLHWYLQKPGQSPQLLIYKVSNRFSGVPDRFSGSGSGTDFTLKISRVEAEDVGVYYCSQNTHVPPTFGQGTKVEIERTVAAPSVFIFPPSDEQLKSGTASVVCLLNNFYPREAKVQWKVDNALQSGNSQESVTEQDSKDSTYSLSSTLTLSKADYEKHKVYACEVTHQGLSSPVTKSFNRGEC
notes: Heterodimerized anti-glypican 3 IgG1 antibody with the mutation in only one H chain (GpH7-B3 side); also called He Ab
B5: GpH7-A5/GpH7-B3 variant S337_07I/GpL16-k0 (antibody, human IgG1, kappa)
heavy 1: not shown
heavy 2: not shown
light: B4 light
notes: as for B4
B6: GpH7-A5/GpH7-B3 variant S337_19Q/GpL16-k0 (antibody, human IgG1, kappa)
heavy 1: not shown
heavy 2: not shown
light: B4 light
notes: as for B4
B7: GpH7-A5/GpH7-B3 variant S337_20W/GpL16-k0 (antibody, human IgG1, kappa)
heavy 1: not shown
heavy 2: not shown
light: B4 light
notes: as for B4
B8: GpH7-A5/GpH7-B3 variant S337_15Y/GpL16-k0 (antibody, human IgG1, kappa)
heavy 1: not shown
heavy 2: not shown
light: B4 light
notes: as for B4
B9: GpH7-A5/GpH7-B3 variant S337_14T/GpL16-k0 (antibody, human IgG1, kappa)
heavy 1: not shown
heavy 2: not shown
light: B4 light
notes: as for B4
B10: GpH7-A5/GpH7-B3 variant S337_16H/GpL16-k0 (antibody, human IgG1, kappa)
heavy 1: not shown
heavy 2: not shown
light: B4 light
notes: as for B4
B11: GpH7-A5/GpH7-B3 variant S337_11K/GpL16-k0 (antibody, human IgG1, kappa)
heavy 1: not shown
heavy 2: not shown
light: B4 light
notes: as for B4
B12: GpH7-A5/GpH7-B3 variant S337_08L/GpL16-k0 (antibody, human IgG1, kappa)
heavy 1: not shown
heavy 2: not shown
light: B4 light
notes: heterodimerized anti-glypican 3 IgG1; mutation in one H chain only; also called He Ab
B13: GpH7-A5/GpH7-B3 variant S337_15Y/GpL16-k0 (antibody, human IgG1, kappa)
heavy 1: not shown
heavy 2: not shown
light: B4 light
notes: as for B12
B14: GpH7-A5/GpH7-B3 variant S337_07I/GpL16-k0 (antibody, human IgG1, kappa)
heavy 1: not shown
heavy 2: not shown
light: B4 light
notes: as for B12
B15: GpH7-A5/GpH7-B3 variant S337_16H/GpL16-k0 (antibody, human IgG1, kappa)
heavy 1: not shown
heavy 2: not shown
light: B4 light
notes: as for B12
B16: GpH7-A5/GpH7-B3 variant S337_19Q/GpL16-k0 (antibody, human IgG1, kappa)
heavy 1: not shown
heavy 2: not shown
light: B4 light
notes: as for B12
B17: GpH7-A5/GpH7-B3 variant S337_14T/GpL16-k0 (antibody, human IgG1, kappa)
heavy 1: not shown
heavy 2: not shown
light: B4 light
notes: as for B12
B18: GpH7-A5/GpH7-B3 variant S337_11K/GpL16-k0 (antibody, human IgG1, kappa)
heavy 1: not shown
heavy 2: not shown
light: B4 light
notes: as for B12

Target: T1, FcγRIIIaV (human, UniProt P08637 17-208)
T1 construct: extracellular domain
Experiment: SPR (Biacore), antibody captured, FcγR as analyte, 1:1 Langmuir fit
Experimental: The antibody of interest was analyzed for its interaction with FcγR using a BiaCore™ T100, BiaCore™ A100, or BiaCore™ 4000 surface plasmon resonance system (GE Healthcare Japan Corp.). The running buffer used was HBS-EP+ (GE Healthcare Japan Corp.). The assay temperature was set to 25° C. The sensor chips used were: a chip prepared by immobilizing antigenic peptides onto Series S Sensor Chip CM5 (GE Healthcare Japan Corp.) by the amine coupling method; a chip prepared by immobilizing antigenic peptides biotinylated in advance onto Series S Sensor Chip SA (certified) (GE Healthcare Japan Corp.) through their interaction; a chip prepared by immobilizing protein L (ACTIGEN, BioVision, Inc.) onto Series S Sensor Chip CM5 (GE Healthcare Japan Corp.); and a chip prepared by immobilizing protein A/G (Thermo Fisher Scientific K.K.) onto Series S Sensor Chip CM5 (GE Healthcare Japan Corp.). The antibody of interest was captured onto any of these chips and allowed to interact with FcγR diluted with a running buffer. The antibody captured on the chip was washed off through the reaction of 10 mM glycine-HCl (pH 1.5) to regenerate the chip, which was repetitively used.

T1 sequence (P08637 other isoform, or with tags, fused parts or gaps): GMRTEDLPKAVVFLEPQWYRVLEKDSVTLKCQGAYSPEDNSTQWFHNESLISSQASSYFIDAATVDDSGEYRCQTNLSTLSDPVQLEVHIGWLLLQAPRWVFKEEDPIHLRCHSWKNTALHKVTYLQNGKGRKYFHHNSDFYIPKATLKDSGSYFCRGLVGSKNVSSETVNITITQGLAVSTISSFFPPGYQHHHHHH

| Binder | Kd [nM] |
| --- | --- |
| B1 | 7 |
| B2 | 1.7 |
| B3 | 6.9 |

Target: T2, FcγRIa (human, UniProt P12314 16-292)
T2 construct: extracellular domain; also called 1a
Experiment: SPR (Biacore), antibody captured on chip, FcγR as analyte; relative to GpH7-A5/GpH7-B3/GpL16-k0 = 100

T2 sequence (P12314 other isoform, or with tags, fused parts or gaps): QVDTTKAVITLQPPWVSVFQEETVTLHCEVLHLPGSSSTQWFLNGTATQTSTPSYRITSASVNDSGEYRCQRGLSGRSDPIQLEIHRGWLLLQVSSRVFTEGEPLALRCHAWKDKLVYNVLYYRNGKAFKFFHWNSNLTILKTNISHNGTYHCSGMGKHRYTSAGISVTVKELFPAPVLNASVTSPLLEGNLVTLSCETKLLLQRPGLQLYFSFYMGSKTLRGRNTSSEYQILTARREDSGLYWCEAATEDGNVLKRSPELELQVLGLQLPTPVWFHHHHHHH

| Binder | He/Con 1a (binding activity relative to GpH7-A5/GpH7-B3/GpL16-k0 x 100) |
| --- | --- |
| B4 | 102 % of control |
| B5 | 102 % of control |
| B6 | 101 % of control |
| B7 | 102 % of control |
| B8 | 101 % of control |
| B9 | 102 % of control |
| B10 | 101 % of control |
| B11 | 101 % of control |

Target: T3, FcγRIIa(R) (human, UniProt P12318 34-217)
T3 construct: extracellular domain; allotype R131; also called 2aR
T3 sequence: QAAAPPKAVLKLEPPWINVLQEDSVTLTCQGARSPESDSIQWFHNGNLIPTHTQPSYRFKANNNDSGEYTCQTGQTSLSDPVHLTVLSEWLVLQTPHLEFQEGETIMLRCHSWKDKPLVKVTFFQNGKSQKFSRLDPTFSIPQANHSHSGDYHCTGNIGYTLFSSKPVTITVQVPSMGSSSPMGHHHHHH
Experiment: as above

| Binder | He/Con 2aR (binding activity relative to GpH7-A5/GpH7-B3/GpL16-k0 x 100) |
| --- | --- |
| B4 | 109 % of control |
| B5 | 111 % of control |
| B6 | 108 % of control |
| B7 | 112 % of control |
| B8 | 107 % of control |
| B9 | 112 % of control |
| B10 | 111 % of control |
| B11 | 105 % of control |

Target: T4, FcγRIIa(H) (human, UniProt P12318 34-217)
T4 construct: extracellular domain; allotype H131; also called 2aH
T4 sequence: T3 sequence with R134H
Experiment: as above

| Binder | He/Con 2aH (binding activity relative to GpH7-A5/GpH7-B3/GpL16-k0 x 100) |
| --- | --- |
| B4 | 106 % of control |
| B5 | 107 % of control |
| B6 | 104 % of control |
| B7 | 108 % of control |
| B8 | 106 % of control |
| B9 | 110 % of control |
| B10 | 108 % of control |
| B11 | 102 % of control |

Target: T5, FcγRIIb (human, UniProt P31994 43-217)
T5 construct: extracellular domain; also called 2b
T5 sequence: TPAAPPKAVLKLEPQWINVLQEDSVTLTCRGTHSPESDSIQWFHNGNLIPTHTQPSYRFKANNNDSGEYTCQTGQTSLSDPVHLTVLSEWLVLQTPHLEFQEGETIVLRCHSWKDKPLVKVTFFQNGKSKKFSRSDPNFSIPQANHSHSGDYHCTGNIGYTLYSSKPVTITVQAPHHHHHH
Experiment: as above

| Binder | He/Con 2b (binding activity relative to GpH7-A5/GpH7-B3/GpL16-k0 x 100) |
| --- | --- |
| B4 | 109 % of control |
| B5 | 113 % of control |
| B6 | 109 % of control |
| B7 | 119 % of control |
| B8 | 109 % of control |
| B9 | 114 % of control |
| B10 | 114 % of control |
| B11 | 103 % of control |

Target: T6, FcγRIIIa (human, UniProt P08637 17-208)
T6 construct: extracellular domain; also called 3a
Experiment: as above

T6 sequence (P08637 other isoform, or with tags, fused parts or gaps): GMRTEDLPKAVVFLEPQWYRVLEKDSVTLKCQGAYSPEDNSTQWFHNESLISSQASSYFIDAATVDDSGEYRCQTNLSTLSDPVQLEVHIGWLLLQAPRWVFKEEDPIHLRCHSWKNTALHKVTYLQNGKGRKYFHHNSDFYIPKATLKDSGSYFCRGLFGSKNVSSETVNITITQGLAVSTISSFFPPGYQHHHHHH

| Binder | He/Con 3a (binding activity relative to GpH7-A5/GpH7-B3/GpL16-k0 x 100) |
| --- | --- |
| B4 | 90.2 % of control |
| B5 | 88.3 % of control |
| B6 | 91.2 % of control |
| B7 | 93.8 % of control |
| B8 | 94.9 % of control |
| B9 | 94 % of control |
| B10 | 100 % of control |
| B11 | 80.1 % of control |

Target: T7, FcγRIIIa extracellular domain with C-terminal His tag (allotype not given) (human, UniProt P08637 17-208)
T7 construct: extracellular domain; also called 3a
Experiment: SPR (Biacore), captured antibody, FcγRIIIa analyte; binding relative to GpH7-A5/GpH7-B3/GpL16-k0 = 100

| Binder | He/Con 3a [%] |
| --- | --- |
| B12 | 90.2 |
| B13 | 94.9 |
| B14 | 88.3 |
| B15 | 100 |
| B16 | 91.2 |
| B17 | 94 |
| B18 | 80.1 |
